Experimental data from US20050152916A1.
“And” between values parts separate entries of the source, which are not always exact repeats. Identical values can stand only once.

Tests used:
[1] = target: L^d on cells loaded with QL9 peptide (mouse) (UniProt P01887)
[2] = target: recombinant biotinylated L^d immobilized on a support, loaded with QL9 peptide (mouse) (UniProt P01887)
[3] = target: 2C T-cell receptor (on T-cells of 2C TCR transgenic mice) (mouse); test: staining of purified CD8+ lymph node cells of 2C mice
[4] = target: 2C T-cell receptor (on T-cells of 2C TCR transgenic mice) (mouse); test: flow cytofluorometry of purified 2C TCR transgenic lymph node T-cells
[5] = target: recombinant biotinylated L^d immobilized on avidin-coated sheep red blood cells (mouse); test: flow cytofluorometry of L^d-coated SRBC with anti-L^d antibody 30.5.7 (FIG. 8)

recombinant biotinylated L^d immobilized on a support, loaded with QL9 peptide (mouse), sequence (P01897 25-309 limits assumed, chain 1 of 2): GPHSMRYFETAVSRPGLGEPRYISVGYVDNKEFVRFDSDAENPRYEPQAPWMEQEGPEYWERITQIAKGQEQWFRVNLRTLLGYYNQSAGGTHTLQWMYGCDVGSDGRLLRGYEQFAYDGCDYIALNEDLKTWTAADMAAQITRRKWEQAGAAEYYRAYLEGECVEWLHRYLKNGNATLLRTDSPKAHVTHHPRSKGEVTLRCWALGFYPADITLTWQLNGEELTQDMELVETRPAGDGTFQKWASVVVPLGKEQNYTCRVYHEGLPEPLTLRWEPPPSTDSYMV
recombinant biotinylated L^d immobilized on a support, loaded with QL9 peptide (mouse), sequence (P01887 21-119 limits assumed, chain 2 of 2): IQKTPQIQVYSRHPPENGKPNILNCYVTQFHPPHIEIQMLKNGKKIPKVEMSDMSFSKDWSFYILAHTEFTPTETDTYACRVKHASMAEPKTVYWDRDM
L^d on cells loaded with QL9 peptide (mouse), sequence (P01897 25-362, chain 1 of 2): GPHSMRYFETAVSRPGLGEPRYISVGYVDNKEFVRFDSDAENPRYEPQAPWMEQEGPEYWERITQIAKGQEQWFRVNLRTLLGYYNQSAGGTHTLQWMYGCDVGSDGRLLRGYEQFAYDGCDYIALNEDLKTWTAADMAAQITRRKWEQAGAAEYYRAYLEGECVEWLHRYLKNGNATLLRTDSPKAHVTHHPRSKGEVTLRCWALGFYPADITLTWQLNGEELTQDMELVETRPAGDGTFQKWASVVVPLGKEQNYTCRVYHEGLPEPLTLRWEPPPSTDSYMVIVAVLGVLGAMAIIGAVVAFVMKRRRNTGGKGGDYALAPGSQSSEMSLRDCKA
L^d on cells loaded with QL9 peptide (mouse), sequence (P01887 21-119, chain 2 of 2): as the sequence (P01887 21-119 limits assumed, chain 2 of 2) above

In the case of “2C T-cell receptor (on T-cells of 2C TCR transgenic mice)”, the percent of lymphocytes included in rosettes [1] is reported as 30% and 40% and the percent of lymphocytes included in rosettes [2] is reported as 30% and 40%.

In the case of “monoclonal antibody 1B2 (anti-clonotypic antibody to the 2C T-cell receptor)”, the percent of cells positive for staining [3] is reported as > 95% and the percent of cells positive for staining [4] is reported as 97% and 98%.

For monoclonal antibody 30.5.7 (anti-L^d), the percent of cells labeled [5] was 99.8%.
